Laboratory results from article PMC6212565, “Human antibodies targeting Zika virus NS1 provide protection against disease in a mouse model” (Nature Communications, 2018).

Biological target: T1, recombinant NS1 protein from Zika virus MR766 (Zika virus MR766 (Rhesus/1947/Uganda))
T1 construct: also called MR766 NS1; NS1 from MR766; source: Expi293 cells transfected with pCAGGS-MR766-NS1, purified from the supernatant (Ni-NTA)
Assay: ELISA; plates coated with recombinant ZIKV NS1 at 2 μg per mL in pH 9.41 carbonate buffer overnight at 4 °C; mAbs from 10 μg per mL, serially diluted 3-fold, 2 h at room temperature; detected with HRP-conjugated goat anti-human IgG
Conditions: both partners purified

B1: AA12 LALAPG (antibody, V domains shown)
VH: EVQLVESGGGLIQPGGSLRLSCAASGFTVSSNYMSWVRQAPGKGLEWVSVIYSGGSTYYADSVKGRFTISRDNSKNTLYLQMNSLRAEDTAVYYCARDRRGFDYWGQGTMVTVSS
VL: DIQMTQSPLSLSASVGDRVTITCRTSQSISSYLNWYQQKPGKAPKLLIYAASSLQSGVPSRFSGSGSGTDFTLTISSLQPEDFATYYCQQTYSTPLTFGGGTKVEIK
notes: also called mutated form of AA12; mutant AA12 mAb
B1: binds.
